The record followed here is publication PMC7111020 (2007).

Series [1] concerns the molecule itself. In words: sedimentation equilibrium analytical ultracentrifugation.
In series [2] the target is T1, mTIM-1 (Mus musculus, UniProt Q5QNS5).
T1 chain: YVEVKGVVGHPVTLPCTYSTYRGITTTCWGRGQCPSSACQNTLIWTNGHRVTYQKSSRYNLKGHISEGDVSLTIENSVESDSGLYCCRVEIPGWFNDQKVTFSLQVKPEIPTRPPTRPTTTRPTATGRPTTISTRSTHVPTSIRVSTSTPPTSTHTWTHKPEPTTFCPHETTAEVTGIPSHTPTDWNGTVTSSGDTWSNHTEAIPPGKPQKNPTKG
Briefly: SPR. On the technique in general: In SPR one partner is held on a chip, and binding of the other changes the refractive index at the surface.

B1: mTIM-2 20-129 (protein)
chain: ESHTAVQGLAGHPVTLPCIYSTHLGGIVPMCWGLGECRHSYCIRSLIWTNGYTVTHQRNSLYQLKGNISEGNVSLTIENTVVGDGGPYCCVVEIPGAFHFVDYMLEVKPE
As for B1, the Kd in series [1] was ~300 µM.

B2: mTIM-1 ECD (protein)
chain: T1 chain
On to B2, for which the Kd in series [2] was ~0.6 µM.

Usually Kd stands for the constant that tells how readily two partners part at equilibrium.
